Substrate in the data set “purified protein”: O=C(O)/C=C(/CC(=O)O)C(=O)O
The data set can be described thus: purified protein. The class given is biochemical, Homo sapiens. The following applies: active site.

Data set [1] concerns the molecule itself. Nature of the data set: crystal structure; crystals of apo and citraconate-bound hACOD1 (4-461) grown in conditions containing calcium acetate; solved by molecular replacement with PDB 6R6U; two protomers (chains A and B) form the dimer.

The values below come from publication doi:10.1101/2025.06.13.659517, “Analysis of apo and citraconate-bound hACOD1 (hIRG1) by X-ray crystallography and NMR spectroscopy: Structural insights for developing chemotherapeutic agents” (bioRxiv, 2025).

As usually defined, the Km is the substrate concentration at which the rate is half of its maximum. One may read the stoichiometry N as a count of units in the complex or per binding partner.

B1: Human aconitate decarboxylase 1 (hACOD1), residues 4-461 (enzyme, UniProt A6NK06 4-461, looked up)
chain: KSITESFATAIHGLKVGHLTDRVIQRSKRMILDTLGAGFLGTTTEVFHIASQYSKIYSSNISSTVWGQPDIRLPPTYAAFVNGVAIHSMDFDDTWHPATHPSGAVLPVLTALAEALPRSPKFSGLDLLLAFNVGIEVQGRLLHFAKEANDMPKRFHPPSVVGTLGSAAAASKFLGLSSTKCREALAIAVSHAGAPMANAATQTKPLHIGNAAKHGIEAAFLAMLGLQGNKQVLDLEAGFGAFYANYSPKVLPSIASYSWLLDQQDVAFKRFPAHLSTHWVADAAASVRKHLVAERALLPTDYIKRIVLRIPNVQYVNRPFPVSEHEARHSFQYVACAMLLDGGITVPSFHECQINRPQVRELLSKVELEYPPDNLPSFNILYCEISVTLKDGATFTDRSDTFYGHWRKPLSQEDLEEKFRANASKMLSWDTVESLIKIVKNLEDLEDCSVLTTLLKGP
notes: The tag actually on the construct is therefore uncertain; also called hIRG1; hACOD1 (4-461); source: E. coli BL21-CodonPlus (RIPL), purified (StrepTactin column, TEV protease, SEC)
As for B1, the Km in “purified protein” amounted to 9.3 ± 2.1 mM. Further, the “stoichiometry N” value in data set [1] is 2.
